From publication PMC7641732, “Structural basis of prostate-specific membrane antigen recognition by the A9g RNA aptamer” come the findings set out here.

The target in the data set is human PSMA extracellular part (wtPSMA) (human, UniProt Q04609 44-750). The experiment in a line: X-ray crystallography 2.2 A; 2-PMPA, active-site Zn2+; IC50: 20 mM Tris, 150 mM NaCl, pH 8.0, 37 C preincubation 10 min; flow cytometry: 10 mM Tris, 150 mM NaCl, pH 7.4, 0.5% fish gelatin (inhibitor preincubation 4). As to conditions: protein: recombinant; tags: N-terminal Strep-FLAG; chain copies: 2; stem-loop: S1 7 bp, 4x1 internal loop, S2 4 bp, 16-nt hairpin loop.
Sequence of human PSMA extracellular part (wtPSMA) (Q04609 44-750): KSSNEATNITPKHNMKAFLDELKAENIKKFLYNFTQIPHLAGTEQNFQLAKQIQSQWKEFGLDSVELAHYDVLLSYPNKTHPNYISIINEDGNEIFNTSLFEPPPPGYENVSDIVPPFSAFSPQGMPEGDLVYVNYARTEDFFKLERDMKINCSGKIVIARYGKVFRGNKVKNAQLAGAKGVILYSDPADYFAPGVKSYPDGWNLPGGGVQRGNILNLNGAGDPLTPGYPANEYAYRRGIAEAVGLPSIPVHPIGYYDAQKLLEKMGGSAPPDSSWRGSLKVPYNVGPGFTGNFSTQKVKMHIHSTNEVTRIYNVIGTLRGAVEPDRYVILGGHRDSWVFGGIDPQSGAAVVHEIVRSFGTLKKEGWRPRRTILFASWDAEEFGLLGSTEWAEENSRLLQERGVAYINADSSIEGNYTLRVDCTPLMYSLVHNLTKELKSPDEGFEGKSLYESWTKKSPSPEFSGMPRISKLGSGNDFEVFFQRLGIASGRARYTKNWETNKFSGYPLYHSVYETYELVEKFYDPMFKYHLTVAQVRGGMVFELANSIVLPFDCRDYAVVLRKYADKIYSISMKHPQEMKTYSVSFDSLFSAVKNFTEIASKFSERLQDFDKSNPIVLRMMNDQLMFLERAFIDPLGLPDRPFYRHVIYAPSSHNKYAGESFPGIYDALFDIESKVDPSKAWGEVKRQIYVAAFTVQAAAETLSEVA

On to GGGACCGAAAAAGACCUGACUUCUAUACUAAGUCUACGUUCCC (structured_RNA, 2'-deoxy-2'-fluoro on all C and U) [A9g], for which the binding result was “binds”.
